Some results are limits rather than exact numbers.

Consider 16 molecules from patent US20160185837A1, “GIP AND GLP-1 RECEPTOR DUAL-AGONISTS FOR THE TREATMENT OF DIABETES” (Medimmune Limited, priority 2013, published 2016).

Assay in all cases: cell-based or functional assay
In test [1] the target is human glucagon receptor (human) (UniProt P47871).
Test [2] has as its target mouse GLP-1 receptor (mouse) (UniProt O35659).
In test [3] the target is T1, rat GIP receptor (rat) (UniProt P43219).
T1 sequence (looked up): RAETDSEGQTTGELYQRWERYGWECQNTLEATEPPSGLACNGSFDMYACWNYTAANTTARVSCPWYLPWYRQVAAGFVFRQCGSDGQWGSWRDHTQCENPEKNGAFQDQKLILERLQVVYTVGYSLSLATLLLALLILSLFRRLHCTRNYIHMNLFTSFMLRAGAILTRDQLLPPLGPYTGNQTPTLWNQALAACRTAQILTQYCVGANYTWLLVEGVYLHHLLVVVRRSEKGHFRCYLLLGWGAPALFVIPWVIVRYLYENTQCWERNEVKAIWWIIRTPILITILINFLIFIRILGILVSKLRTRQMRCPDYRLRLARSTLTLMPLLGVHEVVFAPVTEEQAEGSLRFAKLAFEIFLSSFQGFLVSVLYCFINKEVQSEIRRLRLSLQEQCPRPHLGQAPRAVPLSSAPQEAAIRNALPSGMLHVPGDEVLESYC

The target in test [4] is T2, mouse GIP receptor (mouse) (UniProt Q0P543).
T2 sequence (looked up): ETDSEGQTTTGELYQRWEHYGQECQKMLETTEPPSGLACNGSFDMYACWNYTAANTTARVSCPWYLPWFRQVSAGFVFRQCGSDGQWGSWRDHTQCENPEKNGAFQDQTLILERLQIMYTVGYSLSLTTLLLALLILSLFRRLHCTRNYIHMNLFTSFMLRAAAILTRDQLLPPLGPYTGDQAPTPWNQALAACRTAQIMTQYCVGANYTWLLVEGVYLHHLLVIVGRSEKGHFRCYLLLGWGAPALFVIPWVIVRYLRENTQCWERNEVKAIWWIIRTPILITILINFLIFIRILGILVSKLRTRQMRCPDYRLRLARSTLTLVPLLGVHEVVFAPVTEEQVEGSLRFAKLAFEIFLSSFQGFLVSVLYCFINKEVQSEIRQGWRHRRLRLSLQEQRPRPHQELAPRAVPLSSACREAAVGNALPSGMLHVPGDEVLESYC

For test [5], the target named is rat GLP-1 receptor (rat) (UniProt P32301).
rat GLP-1 receptor (rat), sequence (P32301 22-463): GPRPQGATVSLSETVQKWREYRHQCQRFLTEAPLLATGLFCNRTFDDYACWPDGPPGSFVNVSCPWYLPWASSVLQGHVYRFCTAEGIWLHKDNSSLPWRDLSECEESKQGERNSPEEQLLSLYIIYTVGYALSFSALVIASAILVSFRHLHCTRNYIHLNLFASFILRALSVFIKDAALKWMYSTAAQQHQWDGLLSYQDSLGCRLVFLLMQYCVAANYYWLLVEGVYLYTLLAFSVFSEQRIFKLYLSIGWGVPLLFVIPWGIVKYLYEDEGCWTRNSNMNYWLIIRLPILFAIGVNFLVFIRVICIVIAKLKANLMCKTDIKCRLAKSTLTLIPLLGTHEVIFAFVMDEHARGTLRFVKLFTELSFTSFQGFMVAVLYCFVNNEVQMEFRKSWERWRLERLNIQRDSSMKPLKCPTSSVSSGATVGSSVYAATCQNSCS
For test [6], the target named is T3, human GIP receptor (human) (UniProt P48546).
T3 sequence (looked up): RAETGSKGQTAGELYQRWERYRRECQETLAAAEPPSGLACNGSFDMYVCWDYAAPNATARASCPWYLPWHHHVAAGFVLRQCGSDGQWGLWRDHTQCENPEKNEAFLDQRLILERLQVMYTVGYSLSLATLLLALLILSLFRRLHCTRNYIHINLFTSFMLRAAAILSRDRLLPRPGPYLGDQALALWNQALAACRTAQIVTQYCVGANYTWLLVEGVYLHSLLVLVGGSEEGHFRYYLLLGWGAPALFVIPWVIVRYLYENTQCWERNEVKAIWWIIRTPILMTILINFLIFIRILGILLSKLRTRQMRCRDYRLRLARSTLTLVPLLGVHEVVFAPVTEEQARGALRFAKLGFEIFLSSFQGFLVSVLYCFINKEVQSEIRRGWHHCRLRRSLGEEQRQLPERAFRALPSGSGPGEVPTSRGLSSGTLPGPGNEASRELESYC

The target of test [7] is human GLP-1 receptor (human) (UniProt P43220).
human GLP-1 receptor (human), sequence (P43220 24-463): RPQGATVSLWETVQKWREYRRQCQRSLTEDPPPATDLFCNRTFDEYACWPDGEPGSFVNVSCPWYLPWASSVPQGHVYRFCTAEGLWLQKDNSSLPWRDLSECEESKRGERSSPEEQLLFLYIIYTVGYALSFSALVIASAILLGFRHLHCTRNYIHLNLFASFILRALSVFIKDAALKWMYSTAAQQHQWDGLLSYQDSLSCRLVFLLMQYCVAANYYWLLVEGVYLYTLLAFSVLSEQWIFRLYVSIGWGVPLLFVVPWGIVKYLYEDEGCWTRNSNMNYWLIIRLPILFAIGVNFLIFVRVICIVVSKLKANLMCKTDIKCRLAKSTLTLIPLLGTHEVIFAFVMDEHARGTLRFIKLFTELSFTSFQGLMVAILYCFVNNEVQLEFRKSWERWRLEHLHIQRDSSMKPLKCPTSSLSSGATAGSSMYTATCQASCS

mouse GLP-1 receptor (mouse), sequence (O35659 22-463): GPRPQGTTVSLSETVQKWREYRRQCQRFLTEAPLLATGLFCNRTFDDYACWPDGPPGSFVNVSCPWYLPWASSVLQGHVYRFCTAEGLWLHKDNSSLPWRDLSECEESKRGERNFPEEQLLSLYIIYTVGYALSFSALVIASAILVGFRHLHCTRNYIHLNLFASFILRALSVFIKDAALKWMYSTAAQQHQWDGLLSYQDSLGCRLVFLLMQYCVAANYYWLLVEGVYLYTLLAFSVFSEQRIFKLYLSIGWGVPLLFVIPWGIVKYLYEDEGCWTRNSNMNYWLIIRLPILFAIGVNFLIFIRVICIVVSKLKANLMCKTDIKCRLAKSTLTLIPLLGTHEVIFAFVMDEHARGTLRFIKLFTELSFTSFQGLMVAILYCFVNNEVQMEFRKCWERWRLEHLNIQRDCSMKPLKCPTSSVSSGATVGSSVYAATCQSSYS
human glucagon receptor (human), sequence (P47871 26-477): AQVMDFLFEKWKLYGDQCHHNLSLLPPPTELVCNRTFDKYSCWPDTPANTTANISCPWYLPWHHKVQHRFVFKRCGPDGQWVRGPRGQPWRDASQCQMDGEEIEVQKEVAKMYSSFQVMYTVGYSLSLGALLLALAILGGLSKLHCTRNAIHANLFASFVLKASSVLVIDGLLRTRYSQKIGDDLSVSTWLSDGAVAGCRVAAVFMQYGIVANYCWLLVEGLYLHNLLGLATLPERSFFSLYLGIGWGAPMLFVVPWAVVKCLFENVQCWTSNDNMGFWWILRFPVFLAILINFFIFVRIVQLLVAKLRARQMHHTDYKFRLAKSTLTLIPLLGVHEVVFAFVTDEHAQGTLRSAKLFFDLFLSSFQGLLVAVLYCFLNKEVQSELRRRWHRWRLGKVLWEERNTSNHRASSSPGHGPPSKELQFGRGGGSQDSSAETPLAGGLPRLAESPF

B1: IP305 (Fc fusion)
chain: YSEGTFISDYSIALAAAAVRDFVNWLLAGGGGGGGSGGGGSGGGGSGGGGSATHTCPPC
Regarding B1, the cAMP EC50 in test [1] was 1100 nM; in test [2] it was above 1130 nM; in test [3] it was 1.7 nM; in test [4], 3.2 nM; in test [5], 47 nM; in test [6], 0.26 nM. This molecule had a cAMP EC50 in test [7] of 230 nM.

B2: IP314 (Fc fusion)
chain: YSEGTFISDYSKLLAAAAVRDFVNWLLAGGGGGGGSGGGGSGGGGSGGGGSATHTCPPC
B2: the cAMP EC50 in test [1] is 740 nM; in test [2], above 906 nM; in test [3] it was 0.88 nM; in test [4], 15 nM; in test [5], 450 nM; in test [6], 0.23 nM. Also, the cAMP EC50 in test [7] is above 906 nM.

B3: IP311 (Fc fusion)
chain: YSEGTFISDYSIALAAAAIDDFVNWLLAGGGGGGGSGGGGSGGGGSGGGGSATHTCPPC
Take B3: the cAMP EC50 was above 2420 nM in test [1]; 1500 nM in test [2]; 0.43 nM in test [3]; 0.95 nM in test [4]; 61 nM in test [5]; 0.074 nM in test [6]. This molecule gave a cAMP EC50 in test [7] of 670 nM.

B4: IP302 (Fc fusion)
chain: YSEGTFISDYSIALAAAAQQDFVNWLLAGGGGGGGSGGGGSGGGGSGGGGSATHTCPPC
Turning to B4, the cAMP EC50 was found to be 1200 nM in test [1]; 93 nM in test [2]; 0.055 nM in test [3]; 0.083 nM in test [4]; 7 nM in test [5]; 0.018 nM in test [6]. This molecule also yielded a cAMP EC50 in test [7] of 26 nM.

B5: IP308 (Fc fusion)
chain: YSEGTFISDYSIALAAAAAKDFVNWLLAGGGGGGGSGGGGSGGGGSGGGGSATHTCPPC
As for B5, the cAMP EC50 is 1500 nM in test [1]; above 1520 nM in test [2]; 0.09 nM in test [3]; 0.17 nM in test [4]; 700 nM in test [5]; 0.025 nM in test [6]. Further, the cAMP EC50 in test [7] turned out to be 1300 nM.

B6: IP385 (Fc fusion)
chain: YSEGTFTSDYSIYLDRQAIDEFIAWLLKGGGGGGGSGGGGSGGGGSGGGGSACPPC
Take B6: the cAMP EC50 was above 1560 nM in test [1]; 30 nM in test [2]; 1.1 nM in test [3]; 18 nM in test [4]; 0.16 nM in test [5]; 0.012 nM in test [6]. In test [7], this molecule displayed a cAMP EC50 of 0.47 nM.

B7: IP396 (Fc fusion)
chain: YSEGTFTSDYSKLLERQAIDEFIAWLLKGGGGGGGSGGGGSGGGGSGGGGSACPPC
For the molecule B7, the cAMP EC50 in test [1] was found to be 330 nM; in test [2], 1.2 nM; in test [3] it was 0.19 nM; in test [4] it was 0.28 nM; in test [5], 0.057 nM; in test [6], 0.0093 nM. Further, the cAMP EC50 in test [7] amounted to 0.11 nM. For the same molecule, the cAMP EC50, Batch 2 amounted to 250 nM in test [1]; 2.5 nM in test [2]; 0.014 nM in test [3]; 0.78 nM in test [4]; 0.01 nM in test [5]; 0.11 nM in test [7].

B8: IP332 (Fc fusion)
chain: YSEGTFTSDYSIALAAAAQQDFVNWLLAGGGGGGGSGGGGSGGGGSGGGGSGGGGSGGGGSA
For the molecule B8, the cAMP EC50 in test [1] is above 1250 nM; in test [2], 750 nM; in test [3], 0.044 nM; in test [4] it was 0.21 nM; in test [5], 50 nM; in test [6], 0.026 nM. The molecule also showed a cAMP EC50 in test [7] of 98 nM.

B9: IP334 (Fc fusion)
chain: YSEGTFTSDYSIALAAAAQQDFVNWLLKGGGGGGGSGGGGSGGGGSGGGGSGGGGSGGGGSA
With B9, the cAMP EC50 in test [1] is above 455 nM; in test [2], above 455 nM; in test [3], 0.056 nM; in test [4], 0.3 nM; in test [5], 120 nM; in test [6], 0.029 nM. This molecule registered a cAMP EC50 in test [7] of 130 nM.

B10: IP333 (Fc fusion)
chain: YSEGTFISDYSIALAAAAQQDFVNWLLKGGGGGGGSGGGGSGGGGSGGGGSGGGGSGGGGSA
On to B10, for which the cAMP EC50 in test [1] is above 1080 nM; in test [2], above 1080 nM; in test [3], 0.015 nM; in test [4], 0.019 nM; in test [5], 430 nM; in test [6], 0.0086 nM. In addition, the cAMP EC50 in test [7] was above 1080 nM.

B11: IP342 (Fc fusion)
chain: YSEGTFTSDYSAAAEAAAAAAFAAWLAAAAGGGGGSGGGGSGGGGSGGGGSACPPC
As to B11, the cAMP EC50 in test [1] was above 3560 nM; in test [2] it was 670 nM; in test [3] it was 5.1 nM; in test [4], 43 nM; in test [5], 23 nM; in test [6], 4.7 nM. The same molecule showed a cAMP EC50 in test [7] of 75 nM.

B12: IP373 (Fc fusion)
chain: YSEGTHTSDFSKLLERQAIDEFIAWLLKGGAAAGGSGSTASSGSGSATGGGGAATHTCPPC
Regarding B12, the cAMP EC50 was above 6790 nM in test [1]; 9.2 nM in test [2]; 0.035 nM in test [3]; 3.2 nM in test [4]; 0.9 nM in test [5]; 0.0054 nM in test [6]. The cAMP EC50 in test [7] worked out at 0.72 nM.

B13: IP394 (Fc fusion)
chain: YSEGMHTSDLSKLLERQAIDEFIAWLLKGGAAAGGSGSTASSGSGSATGGGGAATHTCPPC
Regarding B13, the cAMP EC50 in test [1] was above 17600 nM; in test [2], 10 nM; in test [3], 0.06 nM; in test [4] it was 10 nM; in test [5] it was 0.23 nM; in test [6], 0.0095 nM. In test [7], this molecule showed a cAMP EC50 of 0.54 nM.

B14: IP375 (Fc fusion)
chain: YSEGTHTSLFSKLLERQAIDEFIAWLLKGGAAAGGSGSTASSGSGSATGGGGAATHTCPPC
Take B14: the cAMP EC50 is above 11700 nM in test [1]; 49 nM in test [2]; 0.07 nM in test [3]; 0.65 nM in test [4]; 3.9 nM in test [5]; 0.078 nM in test [6]. Moreover, the cAMP EC50 in test [7] is 4 nM.

B15: IP321 (Fc fusion)
chain: YSEGTFISDYSIAMDKIHQQDFVNWLLAGGAAAGGSGSTASSGSGSATGGGGAATHTCPPC
Regarding B15, the cAMP EC50 in test [1] amounted to 24 nM; in test [2], 330 nM; in test [3] it was 0.0079 nM; in test [4] it was 0.017 nM; in test [5] it was 22 nM; in test [6] it was 0.0096 nM. The molecule also came in with a cAMP EC50 in test [7] of 72 nM.

B16: IP369 (Fc fusion)
chain: YSEGTFTSDYSKLLERQAIDEFIAHLLKGGGGGGGSGGGGSGGGGSGGGGSGGGGSGGGGSA
As for B16, the cAMP EC50 in test [1] amounted to 710 nM; in test [2] it was 0.27 nM; in test [3] it was 0.02 nM; in test [4] it was 0.68 nM; in test [5], 0.023 nM; in test [6] it was 0.0089 nM. The cAMP EC50 in test [7] came to 0.071 nM.
